# Assay: yeast display, Sf9 membrane polyspecificity reagent, FACS + sequencing; frameworks hold sequencing errors
# Procedure, shortened: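 Polyreactivity labels are assigned by the sorting gate from which each nanobody was recovered. The gates were low and high (top ~1%), set on anti-HA fluorescence for expression and streptavidin fluorescence for reagent binding. Before sorting, galactose-induced (36–48 hours) yeast display cells were stained for 1 hour at 4 °C with 10% biotinylated, detergent-solubilized Sf9 membrane reagent.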
row,Sequence,polyreactivity (PSR sort gate)
1,QVQLVETGGGLVQAGCSLRLSCAASGSIFSYYAMGWSRQAPGKERELVAGITGSGGSTYADSVKGRFTISRDNAKNTVYLQMNSLKPEDTAVYYCAADLQRYWWWYEYWGQGTQVTVSS,high polyreactivity
2,QVQLVETGGGLVQAGGILRLSCAASGSTFGYNAMGWYRQAPGKERELVASITWSSGSTYYADSVKGRFTISRDNAKNTVYLQMNSLKPEDSAVYYCYAKRFRHYGGYYYWGQGTQVTVSS,low polyreactivity
3,QVQLVETGGGLVQAGGRLRLSCAASGSTFKNNAMGWSRQAPGKEREFVAGITRRGTSTYYADSVKGRFTISRDNAKNTVYLQMNSLKPEDTAVYYCNARLRARSTIKLDYWGQGTQVTVSS,high polyreactivity
4,QVQLVETGGGLVQAGGSHRLSCAASGLTFYTYAMGWYRQAPGKERELVAAISTNGGSKYYADSVKGRFTISRDNAKNTVYLQRNCLKPEDTAVYYCAIEGGTYRIFNYWGQGTQVTVSS,low polyreactivity
5,QVQLVETGGGLVQAGGSHRLSCAASGSTFDAYAMGWYRQAPGKETELVAGISIVGSTNYADSVKGRFTISRDNAKNTVYLKMNSLKPEDTAVLYCAADRDWQYSFRPSVYGYDYVYWGQGTQVTVSS,low polyreactivity
6,QVQLVETGGGLVQAGGSLRLSCAASGFIFPGNMGWDRQAPGKDRELVAAISWSGGSTRYADSVKGRFTISRDNAKNTVYLQMNSLKPEDTAVYYCAASLSGKRFTKRYYWGQGTQVTVSS,high polyreactivity
7,QVQLVETGGGLVQAGGSLRLSCAASGFIFVLNAMGWDRQAPGKEMEFVAAITRSGGSTYYADSVKGRFTISRDNAKNNVYLPMNSLKPEVTAVYYCAVLYHSRDRYTYRDEDYWGQGTQVTVSS,low polyreactivity
8,QVQLVETGGGLVQAGGSLRLSCAASGFIGSNTMGWYRQAPGKERELVAAISWSGGSTYYADSVKGRFTISRDNAKNTVYLQMNSLKPEDSAVYYCAARRNSRARRTFGYWGQGTQVSVSS,high polyreactivity
9,QVQLVETGGGLVQAGGSLRLSCAASGFIQSGYAMGWYRQAPGKERELVATITWRDGSTYYADSVKGRYTISRDNAKNTVYLQKNSLKPEDTEVYYCAVAAYSRRSPYYHYNYWGQGTQVTVSS,high polyreactivity
10,QVQLVETGGGLVQAGGSLRLSCAASGFTFRFYAMGWSRQPPGKERELVAAISRGGSTYYADSVKVRFTISRYNEKNTVYLQMNSLKPEDTAVYYCAKRGRYGGYWGQGTQVTVSS,high polyreactivity
11,QVQLVETGGGLVQAGGSLRLSCAASGFTLYYYARGWYRQAPGKERELVAAITARGVSTYADSVKGRFTISRDNAKNTVYLQMNSLKPEDTAVYYCAADRRYNVIGEFGYWGQGTQVTVSS,low polyreactivity
12,QVQLVETGGGLVQAGGSLRLSCAASGGIFVANAMGWYRQAPGKERELVAAISKRGGSTTYADSVKGRFTISRDNAKHTVYLQMNRLKPEDTAVYYCAKVVSPVYLYPSGYDYWGQGTQVTVSS,low polyreactivity
13,QVQLVETGGGLVQAGGSLRLSCAASGITLYFYAMGWSRQAPGKEREMVAGISGSVGSTHYADSVKGRFTISRDNAKNTVYSQMNSLKPEDTAVYYCDAAQVGYYVASVTYGYWGQGTQVTVSS,high polyreactivity
14,QVQLVETGGGLVQAGGSLRLSCAASGLIFTINAMGWYRQAPGKERELVAAITNGDSTHYADSVKGRFTISRDNAKNTVYLQMNSLKPEDTAVYYCAARSYTYYGLRFGYWGQGTQVTVSS,high polyreactivity
15,QVQLVETGGGLVQAGGSLRLSCAASGLTFYYYTMGWYRQAPGKERELVAAITSGGSTYYADSVKGRFTISRDNAKNTVYLQMNSLKPEDTAVYYCAAVPSRYGRYRYYYWGQGTQVTVSS,high polyreactivity
16,QVQLVETGGGLVQAGGSLRLSCAASGNTFGDYAMGWYRQAPGKERELVAAISRSGGSTSYADSVKGRFTISRDNAKNTVYLQMNSLKPADTAVYYCAAYWQRFGYDYWGQGTQVTGSS,low polyreactivity
17,QVQLVETGGGLVQAGGSLRLSCAASGNTFKYYAMGWYRQAPGKERELVAAISYSGGSTYYADSVKGRFTISRDNAKNTVYLQMNSLKPEDTAVYYCAADLDSERYYWGQGTQVTVSS,low polyreactivity
18,QVQLVETGGGLVQAGGSLRLSCAASGRIFPFYAMGWYRQAPGKERELVAAISWNGGSTFYADSVKGRFTISRDNAKNTVYLQMHSLKPEDTAVYYCNADFRPAYTYDYWGQGTQVTVSS,low polyreactivity
19,QVQLVETGGGLVQAGGSLRLSCAASGRIFTYYAMGWYRQAPGKERELVAGISSRGTRTYYADSVKGRFTISRDNAKNTVYLQMNSLKPDDTAVYYCAAYPQFWYWDYNYWGQGTQVTVSS,high polyreactivity
20,QVQLVETGGGLVQAGGSLRLSCAASGRIFYYYAMGWYRQAPGKERELVAAITRGGGTYYADSVKGRFTISRDNAKNTVYLQMYSLKPEDTAVYYCAKRGPPESHHPYRYRFDYWGQGPQVTVSS,low polyreactivity
21,QVQLVETGGGLVQAGGSLRLSCAASGRIIDTYAMGWYRQAPGKERELVAAITRRGGSTYYADSVKGRFTISRDNAKNTVYLQMNSLKPEDTAVYYCAKSLVNRHYDYWGQGTQVTVSS,low polyreactivity

row,Sequence,polyreactivity (PSR sort gate)
1,QVQLVETGGGLVQAGGSLRLSCAASGRTFKFYAMGWYRQAPGKEREFVAVINRSGVNTHYADSVKVRFTISRDNAKNTVYLQMNSLKPEDTAVYYCAKYVYPLDHVAGYDYWGQGTQVTVSS,low polyreactivity
2,QVQLVETGGGLVQAGGSLRLSCAASGRTFSGYAMGWSRQAPGKERELVASITWSGGSTYYADSVKGRFTISRDNAKNTVYLQMNSLKPDDTAVYYCARDSPRGRVGFNYWGQATQVTVSS,low polyreactivity
3,QVQLVETGGGLVQAGGSLRLSCAASGRTIVYYDMGWYRQAPGKEREFVSTITSSGGSTYYADSVKGRFTISRDNAKNTVYVQMNSLKPEDTAVYYCAAYPYIRYSKVSKYYYWGQGTQVTVSS,high polyreactivity
4,QVQLVETGGGLVQAGGSLRLSCAASGRTLYYYAMGWYRQAPGKERELVAAITRSGGSTYYADSVKGRFTISRDNAKNTVYLQMNSLKPEDTEVYYCNKYGYKGGVGYDYWGQGTQVTVSS,high polyreactivity
5,QVQLVETGGGLVQAGGSLRLSCAASGSIFASYAMGWYRQAPGKERELVAAITTSGGRTYYADSVKGRFTISRDNAKNTVYLQMNSLKPEDTAVYYCAVRYRGYGYDWGQGTQVTVSS,high polyreactivity
6,QVQLVETGGGLVQAGGSLRLSCAASGSIFERYAMGWYRQAPGKEREFVATITSGGGRTYYADSVKGRFTISRDNAKNTVYLQMNSLKPEDTAVYYCAAASYRRQPFNYWGQGTQVTVSS,high polyreactivity
7,QVQLVETGGGLVQAGGSLRLSCAASGSIFEYNGMGWYRQAPGKERELVAAITTTGTTDYADSVKGRFTISRDNAKNTVYLLMNSLKPEDTAVYYCAADYTYYYKGEYDYWGQGTQVTVSS,low polyreactivity
8,QVQLVETGGGLVQAGGSLRLSCAASGSIFGGYAMGWYRQAPGKERELVAGITRSGGSTYYADSVKGRFTISRDNAKNTVYLQMNSLKPEDTAVYYCAVEIQFYRSPRKVRSYDYWGQGTQVTVSS,low polyreactivity
9,QVQLVETGGGLVQAGGSLRLSCAASGSIFITYLMGWNRQAPGKERELVDGISRSGGSTYYADSVKGRFTISRDNAMNTVYLQMNSLKPEDTAVYYCAAFFLRRPGSSGLRLLGQGTQVTVSS,high polyreactivity
10,QVQLVETGGGLVQAGGSLRLSCAASGSIFTRYVMGWYRQAPGKERELVAAISRSSGRTYYADSVKGRFTISRDNAKNTVYLQMNSLKPEDTAVYYCAAYAVESYKYDYWGQGTQVTVSS,high polyreactivity
11,QVQLVETGGGLVQAGGSLRLSCAASGSIFVPYGMGWYRQAPGKERELVAAIRKRGSSTYYADSVKWRFTNSRDNAKNTVYLQMNSLKPEDTAVYYCASTWVSVWYRYDYWGQGTQVTVSS,high polyreactivity
12,QVQLVETGGGLVQAGGSLRLSCAASGSIQWNAMGWYRQAPGKERELVAVINTGGSTYADSVKGRFTISRDNAKNTVYLQMNMLKPEDTAVFYCAARVPFTLLKGKQYGYWGQGTQVTVSS,low polyreactivity
13,QVQLVETGGGLVQAGGSLRLSCAASGSNFLPNAMGWYRQAPGKERELVARISYSGGNTYYADSVKGRFTISRDNAKNTVYLQMNSLKPEDTAVYYCATSHYYNDYTGRRYYYWGQGTQVTVSS,high polyreactivity
14,QVQLVETGGGLVQAGGSLRLSCAASGSTFGINAMGWYRQAPGKERELVAAITASGCRTYYADSVKGRFTISRDNAKNTVYLQMNSLKPEDNAVYYCAARGTYYRRYDYWGQGTQVTVSS,low polyreactivity
15,QVQLVETGGGLVQAGGSLRLSCAASGSTFQPYAMGWYRQAPGKERELVAAIRSIAGSTYYADSVKGRFTISRDNAKITVYLQMNILKPDDTAVYYCAADWWRVEMDYWGQGTQVTVSS,low polyreactivity
16,QVQLVETGGGLVQAGGSLRLSCAASGSTFVYNAMGWYRQAPGKERELVASITRSGSSTYYADSVKGRFTISRDNAKNTVYLQMNSLKPEDTAVYYCAVRYSVLSNYRYYYWGQGTQVTVSS,low polyreactivity
17,QVQLVETGGGLVQAGGSLRLSCAASGTIFKKYAMGWYRQAPGKERELVAAITRGTYYADSVKGRFTISRDNAKNTVYLQMNSLIPEDTAVYYFNREYWGRGYYRVRGEYDYWGQGTQVTVSS,low polyreactivity
18,QVQLVETGGGLVQAGGSLRLSCAATGLNFWLYAMAWYRQAPGKEREFVAVISWSGGTTYYADSVKGLFTISRDYAKNTVYLTMTTLIPEDTAVYFCAAQVCYYTNYREFDYWGQGTQVTVSS,low polyreactivity
19,QVQLVETGGGLVQAGGSLRLSCAPSGFIFYRNTMGWYRQAPGKERELDATISRRGGSTYYADSVKGRFTISRDNAKNTVYLQMNSLKPEDTAVYYCADGPRFSYYTHRYGYWGEGTQVTVSS,high polyreactivity
20,QVQLVETGGGLVQAGGSLRLSGAASGRIFWVNAMGWYRQAPGKERELVAVISRGGSTTYADSVKGRFTISRDNAKNTVYLKMNSLKPEDTAVYYCAADAYRHAFLYYGYDYLGQGTQVTVSS,low polyreactivity

# — the nanobody polyreactivity screen of Harvey et al. (2022)
